Reference: patent publication US20230242654A1, “REAGENTS FOR EXPANDING CELLS EXPRESSING RECOMBINANT RECEPTORS” (Juno Therapeutics, Inc., priority 2017, published 2023)

Test system: anti-BCMA CARs
Experiment: BCMA-Fc fusion protein binding to CAR T cells by flow cytometry
Details: versus T cells expressing CARs that do not bind BCMA
Method: The clone encoding the recombinant human BCMA-Fc fusion construct with the N-terminal CD33 leader sequence (SEQ ID NO: 30) was inserted into an expression vector and expressed in HEK 293 cells. Supernatant from the transiently transfected HEK cells was harvested after 5 days and the BCMA-FC fusion protein was purified by protein A affinity chromatography and size exclusion chromatography (SEC). The resulting BCMA-Fc fusion protein was determined to have a purity of greater than 95% as assessed by gel permeation chromatography.

B1: BCMA-Fc fusion protein: extracellular domain of human BCMA and a human IgG1 Fc connected with a linker (SEQ ID NO: 35) (protein)
chain: MLQMAGQCSQNEYFDSLLHACIPCQLRCSSNTPPLTCQRYCNASVTNSVKGTNAGGGGSPKSSDKTHTCPPCPAPEAEGAPSVFLFPPKPKDTLMISRTPEVTCVVVDVSHEDPEVKFNWYVDGVEVHNAKTKPREEQYNSTYRVVSVLTVLHQDWLNGKEYKCKVSNKALPSSIEKTISKAKGQPREPQVYTLPPSRDELTKNQVSLTCLVKGFYPSDIAVEWESNGQPENNYKTTPPVLDSDGSFFLYSKLTVDKSRWQQGNVFSCSVMHEALHNHYTQKSLSLSPGK
modifications: BCMA-Fc fusion polypeptide
B1 was tested. Which “binding of BCMA-Fc to CAR expressing T cells” value did it give?
Its value is “specifically bound to anti-BCMA CAR expressing T cells”.
